# Test results taken from the Immune Epitope Database (IEDB).
# How the values were obtained:
# HLA-A*24:02 = assay: IEDB peptide-MHC binding, purified MHC/competitive/fluorescence; ≥ and ≤ were set here for values at or beyond the usual limits of such assays; conditions: source organism: Zaire ebolavirus
# HLA-B*15:01 [1] = assay: as above
# HLA-A*01:01 [2] = assay: IEDB peptide-MHC binding, purified MHC/competitive/fluorescence; filed as Kd, often an IC50 or EC50 that approximates it; ≥ and ≤ were set here for values at or beyond the usual limits of such assays; conditions: source organism: Encephalitozoon cuniculi GB-M1
# HLA-A*30:01 [3] = assay: as above; conditions: source organism: Encephalitozoon cuniculi GB-M1
# HLA-A*01:01 [4] = assay: IEDB peptide-MHC binding, purified MHC/direct/fluorescence; filed as Kd, often an IC50 or EC50 that approximates it; ≥ and ≤ were set here for values at or beyond the usual limits of such assays
# HLA-B*58:01 = assay: as above
# HLA-A*03:01 [5] = assay: as above
# HLA-C*15:02 = assay: as above
# HLA-A*26:01 = assay: as above
# HLA-A*31:01 = assay: as above
# HLA-B*15:17 = assay: as above
# HLA-B*44:02 = assay: as above
# HLA-B*35:01 = assay: as above
# HLA-A*02:01 [6] = assay: as above
# HLA-B*08:01 = assay: as above
# HLA-A*69:01 = assay: as above
# HLA-B*15:01 [7] = assay: as above
# HLA-B*40:01 [8] = assay: as above
# HLA-B*27:05 = assay: as above
# HLA-B*07:02 = assay: as above
# HLA-A*11:01 [9] = assay: as above
# HLA-B*57:01 = assay: as above; conditions: source organism: Campylobacter jejuni RM1221
# HLA-A*24:03 = assay: as above
# HLA-A*30:01 [10] = assay: as above
# HLA-A*03:01 [11] = assay: IEDB peptide-MHC binding, purified MHC/competitive/fluorescence; ≥ and ≤ were set here for values at or beyond the usual limits of such assays; conditions: source organism: Zaire ebolavirus
# HLA-A*02:01 [12] = assay: as above
# HLA-A*11:01 [13] = assay: as above; conditions: source organism: Zaire ebolavirus
# HLA-B*40:01 [14] = assay: IEDB peptide-MHC binding, purified MHC/competitive/fluorescence; filed as Kd, often an IC50 or EC50 that approximates it; ≥ and ≤ were set here for values at or beyond the usual limits of such assays
# [15] = source organism: Zaire ebolavirus
# [16] = source organism: Giardia lamblia ATCC 50803
# [17] = source organism: Campylobacter jejuni
# [18] = source organism: Campylobacter jejuni RM1221
# [19] = source organism: Vibrio vulnificus
# [20] = source organism: Vaccinia virus
# [21] = source organism: Pseudomonas savastanoi
# [22] = source organism: Pseudomonas aeruginosa
sequence,measurement,setting,value
RATTELRTF,IC50,HLA-A*24:02,0.6 µM
same,IC50,HLA-B*15:01 [1]; [15],55.5 µM
GGRKLKLTK,Kd,HLA-A*01:01 [2],≥ 20 µM
same,Kd,HLA-A*30:01 [3],0.246 µM
ITASKDLCF,Kd,HLA-A*01:01 [4]; [16],8.69 µM
same,Kd,HLA-B*58:01; [16],0.433 µM
same,Kd,HLA-A*03:01 [5]; [16],≥ 20 µM
same,Kd,HLA-C*15:02; [16],3.85 µM
same,Kd,HLA-A*26:01; [16],≥ 20 µM
same,Kd,HLA-A*31:01; [16],≥ 20 µM
same,Kd,HLA-B*15:17; [16],0.0028 µM
same,Kd,HLA-B*44:02; [16],≥ 20 µM
same,Kd,HLA-B*35:01; [16],0.365 µM
same,Kd,HLA-A*02:01 [6]; [16],≥ 20 µM
same,Kd,HLA-B*08:01; [16],≥ 20 µM
same,Kd,HLA-A*69:01; [16],≥ 20 µM
same,Kd,HLA-B*15:01 [7]; [16],0.301 µM
same,Kd,HLA-B*40:01 [8]; [16],≥ 20 µM
same,Kd,HLA-B*27:05; [16],≥ 20 µM
same,Kd,HLA-B*07:02; [16],≥ 20 µM
same,Kd,HLA-A*11:01 [9]; [16],≥ 20 µM
KSNEKNMDF,Kd,HLA-B*58:01; [17],0.063 µM
same,Kd,HLA-A*03:01 [5]; [18],≥ 20 µM
same,Kd,HLA-C*15:02; source organism: Campylobacter jejuni subsp. jejuni NCTC 11168 = ATCC 700819,0.15 µM
same,Kd,HLA-A*26:01; [18],≥ 20 µM
same,Kd,HLA-B*57:01,0.467 µM
same,Kd,HLA-A*31:01; [18],≥ 20 µM
same,Kd,HLA-B*15:17; [18],0.0073 µM
same,Kd,HLA-B*44:02; [18],≥ 20 µM
same,Kd,HLA-B*35:01; [17],3.16 µM
same,Kd,HLA-A*02:01 [6]; [18],≥ 20 µM
same,Kd,HLA-B*08:01; [18],≥ 20 µM
same,Kd,HLA-A*69:01; [18],≥ 20 µM
same,Kd,HLA-B*15:01 [7]; [17],0.215 µM
same,Kd,HLA-B*40:01 [8]; [18],≥ 20 µM
same,Kd,HLA-B*27:05; [18],≥ 20 µM
same,Kd,HLA-B*07:02; [18],≥ 20 µM
same,Kd,HLA-A*11:01 [9]; [18],≥ 20 µM
KVMALPIPH,Kd,HLA-A*01:01 [4]; [19],≥ 20 µM
same,Kd,HLA-B*58:01; [19],≥ 20 µM
same,Kd,HLA-A*03:01 [5]; [19],0.174 µM
same,Kd,HLA-A*24:03; [19],≥ 20 µM
same,Kd,HLA-A*26:01; [19],≥ 20 µM
same,Kd,HLA-A*31:01; [19],0.136 µM
same,Kd,HLA-B*44:02; [19],≥ 20 µM
same,Kd,HLA-A*30:01 [10]; [19],5.28 µM
same,Kd,HLA-B*35:01; [19],0.374 µM
same,Kd,HLA-A*02:01 [6]; [19],≥ 20 µM
same,Kd,HLA-B*08:01; [19],≥ 20 µM
same,Kd,HLA-A*69:01; [19],≥ 20 µM
same,Kd,HLA-B*15:01 [7]; [19],0.452 µM
same,Kd,HLA-B*40:01 [8]; [19],≥ 20 µM
same,Kd,HLA-B*27:05; [19],≥ 20 µM
same,Kd,HLA-B*07:02; [19],9.25 µM
same,Kd,HLA-A*11:01 [9]; [19],0.0247 µM
AALSSLAKH,IC50,HLA-A*03:01 [11],≥ 92.7 µM
same,IC50,HLA-A*02:01 [12]; [15],≥ 98.5 µM
same,IC50,HLA-B*15:01 [1]; [15],≥ 156 µM
same,IC50,HLA-A*11:01 [13],9.21 µM
SQYVDDANL,IC50,HLA-A*02:01 [12]; [20],45.4 µM
same,IC50,HLA-B*15:01 [1]; [20],≥ 404 µM
TYYPQVVLG,Kd,HLA-A*01:01 [4]; [21],≥ 20 µM
same,Kd,HLA-B*58:01; [22],6.85 µM
same,Kd,HLA-A*03:01 [5]; [21],≥ 20 µM
same,Kd,HLA-A*24:03; [22],3.2 µM
same,Kd,HLA-A*30:01 [10]; [22],≥ 10 µM
same,Kd,HLA-A*02:01 [6]; [21],≥ 20 µM
same,Kd,HLA-B*08:01; [21],≥ 20 µM
same,Kd,HLA-A*69:01; [21],≥ 20 µM
same,Kd,HLA-B*15:01 [7]; [22],≥ 20 µM
same,Kd,HLA-B*40:01 [8]; [21],≥ 20 µM
same,Kd,HLA-B*27:05; [21],≥ 20 µM
same,Kd,HLA-B*07:02; [21],≥ 20 µM
same,Kd,HLA-A*11:01 [9]; [22],5.12 µM
GEMLVATSL,Kd,HLA-B*40:01 [14]; source organism: Yersinia pestis Nepal516,0.0042 µM
IELITTIGF,Kd,HLA-B*40:01 [14]; source organism: Bacillus cereus 03BB102,0.0532 µM
